Results from the supplement of paper PMC9170038.

What follows are sequences tested on K4 kissing-loop RNA reporter (assay: apparent KD of K4 kissing-loop reporter; higher = weaker reporter binding). Settings: Eterna round: R107; input ligand: theophylline 20 uM.
Experimental: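 RNA-MaP round R107: designed RNA switches with theophylline, tryptophan, arginine or FMN aptamers are transcribed on-chip within common flanks. They are titrated with a labelled K4 kissing-loop RNA reporter in RNA-MaP buffer (100 mM Tris pH 7.5, 80 mM KCl, 4 mM MgCl2), without ligand or with the indicated ligand. Median apparent KD per design.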
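Also: bound reporter read as fluorescence of individual clusters on recovered sequencing chips by microscopy, with normalized cluster intensities fitted with a binding model.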

Row | Sequence | apparent KD of K4 kissing-loop reporter [nM]
1 | ACGCUAGCUACCGAAAGGUAGCUAGCGAGUGAGGAUAUGUGGAAACACAGAAGGCACAGCGCAGUGAUGUUGUGCGGCGAAAGCC [whbob_SS_FMNA__2th166] | 231
2 | UUCUGCAUCUCGGCCGCCACUCACUAGUGAUGUUAGUAAGGAGCGACUAGACAUGUCCCGUUGUUGAGGACCGGGAGAGGCUCUU [#14 K4 Tryptophan B Exclusion] | 191
3 | UCUUGUUCAUAGUGAUGUUAUGAGCUUAGAAAGGAUAUGAUCAACAUCAGAAGGUUCAAGGAUUCCCGACUCCAACUUCGGUUUC [theeternabot_sameState_KL_FMN_A_43] | 339
4 | CUUGAUGGAAACAUCGAGUAGAUUACUGAUACCAGUAUCGAUAGAUACCCUUGGCAGCAGAAUCAGUAAUCACGAGUGAUGUUCG [Ex Theophylline A K4 7] | 518
5 | GCUCAGGAGUGAUGUUCCAAGUGAUGUUAACGAGGACCGGUACGGCCGCCACUCGAUACGGCCGGACCGUAGGAUAAACUAGAGC [Same State - Tryptophan A (Freestyle 9)] | 313
6 | UGGAGUUGACGAAAAGUCAACUCCUGAGAUACCAGUGACGAAAGUCACCCUUGGCAGCUCACUGCCAGUGAUGUUGGUAAAUAAA [#OpenEnded 3] | 568
7 | AGGAUCCGUCGACAAAAGUCGACAUAAACCAAGGAUAUGACGAAAGUCAGAAGGUGGUCAUAAGGCCAGUGAUGUUGGUGGAUCC [FmnA 12 #SwitchBubble #K4Late] | 796
8 | UUCGUAGUAGGAAACUAUUACGAAAAGGAAGGAGCGGCGAAGAAGCCAGGUAGGUCGCCUAUUGACAGUGAUGUUGUUAUAUAGA [#10] | 205
9 | GAUUUAGAGGCGGCCGCCACUAGUGAUGUUAGUGAUGUUUGAUACUGAAUAUAUCUGCGUUUAGAUAGGACCGGGCCAGAUGGAG [qzwqmullin] | 193
10 | UGAUAGGACAGAAGGAGCGGCAGUGAUGUUGCCAAAAGGUUAAGGUGUCAAAAGACACCCUGCCAGGUAGGUCGCUGUCCUAUCU | 214
11 | GCAGUCAAUCGACCACGAAAGUGGAUGGAUACCAGAGUCGAAAGACUCCCUUGGCAGCCAGUGAUGUUGGAAGACUGCAAUAAAA [#SwitchBubble 16 #K4Late] | 479
12 | GGUGACUACCAGAGGUGAUGUAUAGUAUCGCGAGGACCGGUACGGCCGCCACUCGUGAAGAGAAAGGAGUGAUGUUCCGUAAUGG [Kazoo C8] | 627
13 | AACGUAGCUACUGAUACCAGACUUUUUCUUGUAUAUUAGUCAAGUGAUGUUUGACUUUUAGUCCCUUGGCAGCAGUUGCUACGAA [JR_Nu_SSTheophyB_Sub028] | 82.6
14 | CUUCGUAAGGGCCCAGUGAUGUUGGGCACUCGAGGACCGGUACGGCCGCCACUCGCUCCCUAAGUCGCGCGCGUGGGCCACCGCC [Rezariatra] | 102
15 | UAACUCUUGCAGUGAUGUUGCAAGUAAGCUCAGGAUAUCAGGAAACUGAGAAGGGAGUAUCCUGAGCUUCUGCAAGAGCUCAGAA [KL-SSFMN-A5] | 68.6
16 | UGUGCCAAAUGUGAUACCAGCUUCCUGCAGUGAUGUUGCAUACGAGUGAUGUUCGUCCGAGGCCCUUGGCAGCGCAGUCGUUUGA [Same State Theophylline B GF 27] | 437
17 | GUAUCGCUAGGAGGAUAUUUCAAUCUGACUCUUUGAGUUAGUACGGAGUGAUGUUCCGAUUUACGGAAAGAAGGCCUAGUGAUAC [FMN B 11] | 264
18 | UGACUGGAUGGAAGGAGCGCUAAACUCCUAGUGAUGUUAGGGAUAUGAGGCAAAGCCUCGAAGCAGGUAGGUCGCCAUCUAGUCU [FiskerMod 20 - Jieux - Same State - Arginine B] | 160
19 | AUUCGAUCAGUGAUGUUGAUCAAAGUCGAAGGAGCGGACGAAAGUCCAGGUAGGUCGCGACUACAAGGUGUUAAGACACCUCGAA [Spvincent t9 mod #OpenEnded] | 208
20 | AGAGUUAUGCGAGGAUAUGCGGUUAGUACUCAAAGAGUACUAACGGCAGAGUGAUGUUCUGUGAAAGCAGAAGGUGCAUAACUCA [Omei KL FMN B SS B v9] | 327
21 | GUUACGCAUGGAAGGAGCGCAUGCUCAACUAUAAGCUCAGUGAUGUUGAGCAUUUUUUUUUUGCAGGUAGGUCGCCAUGUGUAAC [Ex Arginine B K4 29] | 438
22 | AGAUUCUUUUUUUUAUUUAAGUUUUCAGAAGGAGCGUGGUAGUACACAGGUAGGUCGCUGAAUUUUGGGCUAGUGAUGUUAGUUA [whbob_SS_Arginine_A_sa115] | 231
23 | GGGUCAGUCUGAAGGAGCGGCCAGACAGAGCAGUGAUGUUGCUCCUAAUUUAAAAGUGUCGGCCAGGUAGGUCGCAGAUUGGCUC [Dienralais] | 152
24 | CAGUUCUAUUCCGGUAGUGAUGUUACCAAGCGAGGACCGGUACGGCCGCCACUCGAGUGACAGACGUACUGGUAUCACCCGCUUC | 186
25 | GGAUCCACCAGUGAUGUUGGAGAAAACUCCAAGGAUAUGACGAAAGUCAGAAGGUGGUAGACUGGACAAAGUCCGGUAGGAUCCA [FmnA10 A78] | 228
26 | AUCUAGAUGCGAAGGAGCGCCUCAACGCGCUAUCUAUGGAGUGAUGUUCCAACGUAUGAGAGGCAGGUAGGUCGCGCAUCUAGAA [Arg B Ex t1] | 117
27 | AGGCACGAGCAAGGAUAUCGAGUGGAGUGAUGUUCUGCCGACCCAGGACCGAAAGGUCCUGGGUCGCGAGAAGGUGCUCGUGCCU [#2 Same State - FMN A Attempt #8 (HarryS)] | 568
